Molecular target: T1, streptavidin (UniProt P22629 37-163, limits assumed)
T1 construct: Applied in solution to the peptide array and detected by fluorescence; also called streptavidin receptor; receptor
Test: peptide array, fluorescence signal of bound streptavidin

T1 sequence (P22629 37-163 limits assumed): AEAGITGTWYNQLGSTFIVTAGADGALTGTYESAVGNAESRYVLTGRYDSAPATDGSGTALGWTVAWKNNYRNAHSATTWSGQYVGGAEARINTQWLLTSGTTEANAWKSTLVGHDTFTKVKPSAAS

B1: … (SEQ ID NO:1) with deletion of the His at the 10th position from the N-terminus (peptide)
peptide: GFEDYLGEYG
notes: Deletion made by design ([-]) or imitated by synthesis conditions [1]; (solvent alone) and [2]; (no reagent); also called His deletion peptide; synthesis conditions [1] and [2]
B1: no binding.

B2: … (SEQ ID NO:2) with deletion of the Met at the 6th position from the N-terminus (peptide)
peptide: GWTHPFEQKG
notes: Deletion made by design ([-]) or imitated by synthesis conditions [1]; (solvent alone) and [2]; (no reagent); also called deletion control peptide; synthesis conditions [1] and [2]
B2: no binding.
